Experimental findings from publication PMC10491252 (bioRxiv, 2023) are described below.

A word on the stoichiometry N: it is a count of units in the complex or per binding partner.

Where “and” joins values, the source holds several entries; their conditions need not be identical. Equal values may be shown once.

In data set [1] the target is bone morphogenetic protein 6 (BMP6) (UniProt P22004).
In data set [2] the target is ERFE CLR*ΔC1Q (human) (UniProt Q4G0M1). Put plainly: non-reducing SDS-PAGE.
Data set [3] shares this target. Put plainly: AUC.
Data set [4] concerns the target ERFE CLR* (center PGP of the collagen-like repeat mutated to SSS) (human) (UniProt Q4G0M1). Briefly: non-reducing SDS-PAGE.
For data set [5] the target is unchanged. Briefly: AUC.
Data set [6] addresses T1, bone morphogenetic protein 6 (BMP6) (UniProt P22004 375-513).
T1 sequence: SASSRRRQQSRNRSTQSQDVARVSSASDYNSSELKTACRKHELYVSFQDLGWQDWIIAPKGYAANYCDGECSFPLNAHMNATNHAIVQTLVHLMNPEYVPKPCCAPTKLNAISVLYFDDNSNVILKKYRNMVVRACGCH
Put plainly: cell-based or functional assay.

The data set “non-reducing SDS-PAGE” deals with the molecule itself. Put plainly: non-reducing SDS-PAGE.
Data set [7] deals with the molecule itself. Briefly: AUC.
Data set [8] addresses bone morphogenetic protein 6 (BMP6) (UniProt P22004). The source holds these as a separate data set.
The target in data set [9] is T1, bone morphogenetic protein 6 (BMP6). Briefly: cell-based or functional assay. This is another data set of the same source.
In data set [10] the target is bone morphogenetic protein 2 (BMP2) (UniProt P12643 283-396). Briefly: cell-based or functional assay.
Chain of bone morphogenetic protein 2 (BMP2) (P12643 283-396): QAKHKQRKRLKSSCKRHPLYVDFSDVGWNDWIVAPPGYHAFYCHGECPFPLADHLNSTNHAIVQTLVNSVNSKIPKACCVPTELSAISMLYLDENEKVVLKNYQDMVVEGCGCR
Data set [11] concerns the target T2, bone morphogenetic protein 7 (BMP7) (UniProt P18075 293-431).
T2 sequence: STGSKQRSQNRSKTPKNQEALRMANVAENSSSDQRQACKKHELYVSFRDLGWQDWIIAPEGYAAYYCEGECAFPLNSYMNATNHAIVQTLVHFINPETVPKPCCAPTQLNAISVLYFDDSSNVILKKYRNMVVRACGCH
Briefly: cell-based or functional assay.

Data set [12] deals with T3, growth differentiation factor 5 (GDF5) (UniProt P43026 382-501).
T3 sequence: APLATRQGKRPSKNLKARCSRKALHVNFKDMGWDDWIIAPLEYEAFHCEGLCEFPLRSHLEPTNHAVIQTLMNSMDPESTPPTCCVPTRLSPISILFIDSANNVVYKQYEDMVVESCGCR
Briefly: cell-based or functional assay.

Data set [13] deals with the molecule itself. Briefly: AUC. This is another data set of the same source.

Regarding “ERFE CLR*ΔC1Q (from UniProt Q4G0M1 44-207) (domain or fragment)”, in data set [1], the IC50 of inhibition of 2.5nM BMP6, luciferase reporter in BRITER cells is 27 nM. This molecule also gave a stoichiometry N in the data set with ERFE CLR*ΔC1Q (human) [2] of 2. In the data set with ERFE CLR*ΔC1Q (human) [3], this molecule came in with a percent of the protein as dimer of 38%, a percent of the protein as monomer of 61% and a stoichiometry N of 2.

In data set [1], “ERFE CLR* (center PGP of the collagen-like repeat mutated to SSS) (from UniProt Q4G0M1 44-354) (natural protein)” came in with an IC50 of inhibition of 2.5nM BMP6, luciferase reporter in BRITER cells of 6.1 nM. The stoichiometry N came out at 2 in data set [4] and 3 in data set [5].

B1: ERFE ΔC1Q (stop codon at C208, entire C1Q domain removed) (domain or fragment)
chain: PPPGNELPRGPGESRAGPAARPPEPTAERAHSVDPRDAWMLFVRQSDKGVNGKKRSRGKAKKLKFGLPGPPGPPGPQGPPGPIIPPEALLKEFQLLLKGAVRQRERAEPEPCTCGPAGPVAASLAPVSATAGEDDDDVVGDVLALLAAPLAPGPRAPRVEAAFL
Regarding B1, the “IC50 of inhibition of 2.5nM BMP6, luciferase reporter in BRITER cells” value (shortened to “IC50 of inhibition of 2.5nM BMP6”) in [6] was 7.8 nM. The entries for the “stoichiometry N” value in the data set “non-reducing SDS-PAGE” and in the data set “AUC [7]” were 2 and 3, respectively.

B2: ERFE Cys*ΔC1Q (domain or fragment)
chain: PPPGNELPRGPGESRAGPAARPPEPTAERAHSVDPRDAWMLFVRQSDKGVNGKKRSRGKAKKLKFGLPGPPGPPGPQGPPGPIIPPEALLKEFQLLLKGAVRQRERAEPEPSTSGPAGPVAASLAPVSATAGEDDDDVVGDVLALLAAPLAPGPRAPRVEAAFL
In the case of B2, the “IC50 of inhibition of 2.5nM BMP6” value in data set [6] was 97 nM. Also, the “stoichiometry N” value in “AUC [7]” amounted to 3.

B3: ERFE D90A (natural protein)
chain: PPPGNELPRGPGESRAGPAARPPEPTAERAHSVDPRDAWMLFVRQSAKGVNGKKRSRGKAKKLKFGLPGPPGPPGPQGPPGPIIPPEALLKEFQLLLKGAVRQRERAEPEPCTCGPAGPVAASLAPVSATAGEDDDDVVGDVLALLAAPLAPGPRAPRVEAAFLCRLRRDALVERRALHELGVYYLPDAEGAFRRGPGLNLTSGQYRAPVAGFYALAATLHVALGEPPRRGPPRPRDHLRLLICIQSRCQRNASLEAIMGLESSSELFTISVNGVLYLQMGQWTSVFLDNASGCSLTVRSGSHFSAVLLGV
For B3, in [8], the IC50 of inhibition of BMP6, luciferase reporter in BRITER cells stood at 13 nM.

B4: erythroferrone (ERFE), wild type, N-terminally flag-tagged hERFE residues 44-354 (natural protein)
chain: PPPGNELPRGPGESRAGPAARPPEPTAERAHSVDPRDAWMLFVRQSDKGVNGKKRSRGKAKKLKFGLPGPPGPPGPQGPPGPIIPPEALLKEFQLLLKGAVRQRERAEPEPCTCGPAGPVAASLAPVSATAGEDDDDVVGDVLALLAAPLAPGPRAPRVEAAFLCRLRRDALVERRALHELGVYYLPDAEGAFRRGPGLNLTSGQYRAPVAGFYALAATLHVALGEPPRRGPPRPRDHLRLLICIQSRCQRNASLEAIMGLESSSELFTISVNGVLYLQMGQWTSVFLDNASGCSLTVRSGSHFSAVLLGV
On to B4, for which the “IC50 of ERFE inhibition of 2.5nM BMP6, BRE-luciferase reporter in BRITER cells” value in data set [9] came out at 5.2 nM. In addition, the “IC50 of ERFE inhibition of 2.5nM BMP2, BRE-luciferase reporter in BRITER cells” value in data set [10] amounted to 170 nM. Moreover, the “IC50 of ERFE inhibition of 2.5nM BMP7, BRE-luciferase reporter in BRITER cells” value in [11] is 8.9 nM. Moreover, the “IC50 of ERFE inhibition of 2.5nM GDF5, BRE-luciferase reporter in BRITER cells” value in data set [12] was 130 nM. Further, the “stoichiometry N” value in “AUC [13]” is 3 and 6.

B5: ERFE N94A (natural protein)
chain: PPPGNELPRGPGESRAGPAARPPEPTAERAHSVDPRDAWMLFVRQSDKGVAGKKRSRGKAKKLKFGLPGPPGPPGPQGPPGPIIPPEALLKEFQLLLKGAVRQRERAEPEPCTCGPAGPVAASLAPVSATAGEDDDDVVGDVLALLAAPLAPGPRAPRVEAAFLCRLRRDALVERRALHELGVYYLPDAEGAFRRGPGLNLTSGQYRAPVAGFYALAATLHVALGEPPRRGPPRPRDHLRLLICIQSRCQRNASLEAIMGLESSSELFTISVNGVLYLQMGQWTSVFLDNASGCSLTVRSGSHFSAVLLGV
For B5, in [8], the IC50 of inhibition of BMP6, luciferase reporter in BRITER cells was determined as 21 nM.

B6: ERFE Cys* (Cys155, 157 and 208 mutated to serines) (natural protein)
chain: PPPGNELPRGPGESRAGPAARPPEPTAERAHSVDPRDAWMLFVRQSDKGVNGKKRSRGKAKKLKFGLPGPPGPPGPQGPPGPIIPPEALLKEFQLLLKGAVRQRERAEPEPSTSGPAGPVAASLAPVSATAGEDDDDVVGDVLALLAAPLAPGPRAPRVEAAFLSRLRRDALVERRALHELGVYYLPDAEGAFRRGPGLNLTSGQYRAPVAGFYALAATLHVALGEPPRRGPPRPRDHLRLLICIQSRCQRNASLEAIMGLESSSELFTISVNGVLYLQMGQWTSVFLDNASGCSLTVRSGSHFSAVLLGV
For B6, the “IC50 of inhibition of 2.5nM BMP6” value in data set [6] turned out to be 8.7 nM. In the data set “AUC [13]”, the “stoichiometry N” value is 3.
